According to patent US20150087577A1 (POLYPHOR, published 2015):
Bridges are numbered along the chain shown (N, C = ends). [ ]: non-standard residue; d: D form. 2Nal = N[C@@H](Cc1ccc2ccccc2c1)C(=O)O; Cit = NC(=O)NCCC[C@H](N)C(=O)O

Molecular target: human CXCR4 (human, UniProt P61073 1-352)
Assay: cell-based or functional assay

Sequence of human CXCR4 (P61073 whole entry): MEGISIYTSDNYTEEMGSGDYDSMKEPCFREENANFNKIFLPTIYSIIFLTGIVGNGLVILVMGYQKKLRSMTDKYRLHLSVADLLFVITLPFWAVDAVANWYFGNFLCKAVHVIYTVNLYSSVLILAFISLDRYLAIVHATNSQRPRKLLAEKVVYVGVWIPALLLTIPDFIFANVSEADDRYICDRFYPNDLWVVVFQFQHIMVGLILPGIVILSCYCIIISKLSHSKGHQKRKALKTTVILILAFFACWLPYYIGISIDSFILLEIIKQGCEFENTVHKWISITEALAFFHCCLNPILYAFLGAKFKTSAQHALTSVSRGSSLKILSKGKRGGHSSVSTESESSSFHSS

Row | Binder | IC50 (nM) Ca2+ assay (method 2) [nM] | IC50 (nM) Ca2+ assay (method 1) [nM]
1 | cyclo(MR[Cit]CRG[dP]RR[2Nal]CYQK[dP]P) (disulfide 4-11; SMILES CSCC[C@@H]1NC(=O)[C@@H]2CCCN2C(=O)[C@H]2CCCN2C(=O)[C@H](CCCCN)NC(=O)[C@H](CCC(N)=O)NC(=O)[C@H](Cc2ccc(O)cc2)NC(=O)[C@@H]2CSSC[C@H](NC(=O)[C@H](CCCNC(N)=O)NC(=O)[C@H](CCCNC(=N)N)NC1=O)C(=O)N[C@@H](CCCNC(=N)N)C(=O)NCC(=O)N1CCC[C@@H]1C(=O)N[C@@H](CCCNC(=N)N)C(=O)N[C@@H](CCCNC(=N)N)C(=O)N[C@@H](Cc1ccc3ccccc3c1)C(=O)N2) [Example 91] | 2.1 | –
2 | cyclo(YR[Cit]FR[Cit]PRR[2Nal]VY[Cit]K[dP]P) (SMILES CC(C)[C@@H]1NC(=O)[C@H](Cc2ccc3ccccc3c2)NC(=O)[C@H](CCCNC(=N)N)NC(=O)[C@H](CCCNC(=N)N)NC(=O)[C@@H]2CCCN2C(=O)[C@H](CCCNC(N)=O)NC(=O)[C@H](CCCNC(=N)N)NC(=O)[C@H](Cc2ccccc2)NC(=O)[C@H](CCCNC(N)=O)NC(=O)[C@H](CCCNC(=N)N)NC(=O)[C@H](Cc2ccc(O)cc2)NC(=O)[C@@H]2CCCN2C(=O)[C@H]2CCCN2C(=O)[C@H](CCCCN)NC(=O)[C@H](CCCNC(N)=O)NC(=O)[C@H](Cc2ccc(O)cc2)NC1=O) [Example 20] | – | 3730

Next, values leading:

Row | IC50 (nM) Ca2+ assay (method 2) [nM] | IC50 (nM) Ca2+ assay (method 1) [nM] | Binder
3 | 1.1 | – | cyclo(YRNCRG[dP]RR[2Nal]CYQK[dP]P) (disulfide 4-11; SMILES N=C(N)NCCC[C@@H]1NC(=O)[C@@H]2CSSC[C@H](NC(=O)[C@H](Cc3ccc4ccccc4c3)NC(=O)[C@H](CCCNC(=N)N)NC(=O)[C@H](CCCNC(=N)N)NC(=O)[C@H]3CCCN3C(=O)CNC1=O)C(=O)N[C@@H](Cc1ccc(O)cc1)C(=O)N[C@@H](CCC(N)=O)C(=O)N[C@@H](CCCCN)C(=O)N1CCC[C@@H]1C(=O)N1CCC[C@H]1C(=O)N[C@@H](Cc1ccc(O)cc1)C(=O)N[C@@H](CCCNC(=N)N)C(=O)N[C@@H](CC(N)=O)C(=O)N2) [Example 92]
4 | 4.3 | – | cyclo(YRDCRG[dP]RR[2Nal]CYQK[dP]P) (disulfide 4-11; SMILES N=C(N)NCCC[C@@H]1NC(=O)[C@@H]2CSSC[C@H](NC(=O)[C@H](Cc3ccc4ccccc4c3)NC(=O)[C@H](CCCNC(=N)N)NC(=O)[C@H](CCCNC(=N)N)NC(=O)[C@H]3CCCN3C(=O)CNC1=O)C(=O)N[C@@H](Cc1ccc(O)cc1)C(=O)N[C@@H](CCC(N)=O)C(=O)N[C@@H](CCCCN)C(=O)N1CCC[C@@H]1C(=O)N1CCC[C@H]1C(=O)N[C@@H](Cc1ccc(O)cc1)C(=O)N[C@@H](CCCNC(=N)N)C(=O)N[C@@H](CC(=O)O)C(=O)N2) [Example 93]
5 | 2.5 | – | cyclo(YRKCRG[dP]RR[2Nal]CYQK[dP]P) (disulfide 4-11; SMILES N=C(N)NCCC[C@@H]1NC(=O)[C@@H]2CSSC[C@H](NC(=O)[C@H](Cc3ccc4ccccc4c3)NC(=O)[C@H](CCCNC(=N)N)NC(=O)[C@H](CCCNC(=N)N)NC(=O)[C@H]3CCCN3C(=O)CNC1=O)C(=O)N[C@@H](Cc1ccc(O)cc1)C(=O)N[C@@H](CCC(N)=O)C(=O)N[C@@H](CCCCN)C(=O)N1CCC[C@@H]1C(=O)N1CCC[C@H]1C(=O)N[C@@H](Cc1ccc(O)cc1)C(=O)N[C@@H](CCCNC(=N)N)C(=O)N[C@@H](CCCCN)C(=O)N2) [Example 94]
